This is an account of results in patent US20180022794A1 (INSERM INSTITUT NATIONAL DE LA SANTE ET DE LA RECHERCHE …, published 2018).

Common to all, as to experiment: binding kinetics, method not stated (Table 1)
Experiment [1] concerns the target T1, RhoB Q63L (UniProt P62745 1-193, limits assumed).
T1 construct: also called RhoB Q63L (2SHA); constitutively active RhoB mutant

The target of experiment [2] is T2, RhoC Q63L (UniProt P08134 1-190, limits assumed).
T2 construct: also called RhoC Q63L (2SHA); constitutively active RhoC mutant
T2 sequence (P08134 1-190 Q63L limits assumed): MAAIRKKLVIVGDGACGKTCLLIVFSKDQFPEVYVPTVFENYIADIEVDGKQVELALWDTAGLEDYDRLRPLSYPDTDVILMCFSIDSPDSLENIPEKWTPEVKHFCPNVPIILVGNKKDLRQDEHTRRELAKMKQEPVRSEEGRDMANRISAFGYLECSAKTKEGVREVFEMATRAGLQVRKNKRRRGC

Experiment [3] deals with T3, RhoA Q63L (UniProt P61586 1-190, limits assumed).
T3 construct: also called RhoA Q63L (2SHA); constitutively active RhoA mutant
T3 sequence (P61586 1-190 Q63L limits assumed): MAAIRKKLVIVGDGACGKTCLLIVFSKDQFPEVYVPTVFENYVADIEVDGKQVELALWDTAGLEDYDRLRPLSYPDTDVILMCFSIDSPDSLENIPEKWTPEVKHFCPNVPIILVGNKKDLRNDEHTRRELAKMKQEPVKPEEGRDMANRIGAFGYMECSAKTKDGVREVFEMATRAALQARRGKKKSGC

In experiment [4] the target is Rac Q61L (UniProt P63000 1-189).

A word on the Kd: it is the equilibrium constant for the complex coming apart. A word on the koff: it is the first-order rate constant of dissociation. A lower koff goes with a long-lived complex. For orientation: kon means the rate constant with which the complex forms.

T1 sequence (P62745 1-193 Q63L limits assumed): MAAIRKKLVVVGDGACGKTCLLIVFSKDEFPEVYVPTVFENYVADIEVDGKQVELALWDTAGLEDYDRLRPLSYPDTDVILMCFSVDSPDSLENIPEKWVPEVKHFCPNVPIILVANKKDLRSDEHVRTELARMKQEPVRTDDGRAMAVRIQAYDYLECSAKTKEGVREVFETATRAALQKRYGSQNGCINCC

B1: 5SNP65 hs2dAb (VHH)
VHH: VQLQASGGGFVQPGGSLRLSCAASGATYEGEAMGWFRQAPGKEREFVSAISSYPSVISYYADSVKGRFTISRDNSKNTVYLQMNSLRAEDTATYYCAYWVNHEGTIREIYWGQGTQVTVSS
Consider B1, for which the figures for the Kd in experiment [1], in experiment [2] and in experiment [3] were 2.36 nM, 0.608 nM and 0.6 nM, respectively. The koff in experiment [1] is 0.000599 s⁻¹; in experiment [2] it was 0.001 s⁻¹; in experiment [3] it was 0.000522 s⁻¹. For the same molecule, the kon in experiment [1] stood at 253000 M⁻¹ s⁻¹; in experiment [2], 1.71e+06 M⁻¹ s⁻¹; in experiment [3] it was 870000 M⁻¹ s⁻¹.

B2: B6 hs2dAb (VHH)
VHH: VQLQASGGGFVQPGGSLRLSCAASGYGSTIETMGWFRQAPGKEREFVSAISRAPGPSQYYADSVKGRFTISRDNSKNTVYLQMNSLRAEDTATYYCAPINNRTMQDSMFLWNYWGQGTQVTVSS
notes: also called hs2dAb B6
In experiment [2], B2 registered a Kd of 2.32 nM, an off-rate (koff) of 0.000625 s⁻¹ and a kon of 1.45e+06 M⁻¹ s⁻¹. Also, in experiment [3], the Kd is 1.31 nM, the koff was 0.0008 s⁻¹ and the kon was determined as 1.05e+06 M⁻¹ s⁻¹.

B3: H12 hs2dAb (VHH)
VHH: VQLQASGGGFVQPGGSLRLSCAASGDGSRIYAMGWFRQAPGKEREFVSAISWEQDWEHYYADSVKGRFTISRDNSKNTVYLQMNSLRAEDTATYYCAAFMTPHRNLTSMYWGQGTQVTVSS
notes: Humanized synthetic single domain antibody; Soluble form was used in ELISA and immunofluorescence and detected through a myc tag; also called clone H12; H12 antibody
As to B3, in experiment [4], the Kd came to 0.33 nM, the koff is 0.000255 s⁻¹ and the kon turned out to be 753000 M⁻¹ s⁻¹. Also, in experiment [1], the Kd is 1.57 nM, the koff came out at 0.000359 s⁻¹ and the kon worked out at 224000 M⁻¹ s⁻¹.

B4: 4SNP61 hs2dAb (VHH)
VHH: VQLQASGGGFVQPGGSLRLSCAASGFTSTSTVMGWFRQAPGKEREFVSAISSAHTMDTYYADSVKGRFTISRDNSKNTVYLQMNSLRAEDTATYYCAPAPMLGQMITQPALPYWGQGTQVTVSS
In experiment [1], B4 returned a Kd of 4.68 nM, a koff of 0.0033 s⁻¹ and a kon of 722000 M⁻¹ s⁻¹. In experiment [2], this molecule gave a Kd of 5.3 nM, a koff of 0.0046 s⁻¹ and a kon of 875000 M⁻¹ s⁻¹. In experiment [3], this molecule returned a Kd of 1.21 nM, a koff of 0.0013 s⁻¹ and a kon of 1.1e+06 M⁻¹ s⁻¹.

B5: 5SNP48 hs2dAb (VHH)
VHH: VQLQASGGGFVQPGGSLRLSCAASGTSWFTEVMGWFRQAPGKEREFVSAISGLHDVGTYYADSVKGRFTISRDNSKNTVYLQMNSLRAEDTATYYCAALDKWYTKAMDARKDYWGQGTQVTVSS
For the molecule B5, the Kd turned out to be 5.21 nM in experiment [1], 0.524 nM in experiment [2] and 0.84 nM in experiment [3]. The koff turned out to be 0.0024 s⁻¹ in experiment [1], 0.000901 s⁻¹ in experiment [2] and 0.000686 s⁻¹ in experiment [3]. Besides, the values for the kon in experiment [1], in experiment [2] and in experiment [3] were 462000 M⁻¹ s⁻¹, 1.72e+06 M⁻¹ s⁻¹ and 814000 M⁻¹ s⁻¹, respectively.
